Experimental data: US20230272035A1 (VYCELLIX, published 2023)

Molecular target: T1, CD45 (receptor-type tyrosine-protein phosphatase C, PTPRC) (Homo sapiens, UniProt P08575 26-1306)
T1 construct: In the lysis assays CD45 is the endogenous protein on human PBMCs or NK92 effector cells; also called all isoforms of CD45
T1 sequence: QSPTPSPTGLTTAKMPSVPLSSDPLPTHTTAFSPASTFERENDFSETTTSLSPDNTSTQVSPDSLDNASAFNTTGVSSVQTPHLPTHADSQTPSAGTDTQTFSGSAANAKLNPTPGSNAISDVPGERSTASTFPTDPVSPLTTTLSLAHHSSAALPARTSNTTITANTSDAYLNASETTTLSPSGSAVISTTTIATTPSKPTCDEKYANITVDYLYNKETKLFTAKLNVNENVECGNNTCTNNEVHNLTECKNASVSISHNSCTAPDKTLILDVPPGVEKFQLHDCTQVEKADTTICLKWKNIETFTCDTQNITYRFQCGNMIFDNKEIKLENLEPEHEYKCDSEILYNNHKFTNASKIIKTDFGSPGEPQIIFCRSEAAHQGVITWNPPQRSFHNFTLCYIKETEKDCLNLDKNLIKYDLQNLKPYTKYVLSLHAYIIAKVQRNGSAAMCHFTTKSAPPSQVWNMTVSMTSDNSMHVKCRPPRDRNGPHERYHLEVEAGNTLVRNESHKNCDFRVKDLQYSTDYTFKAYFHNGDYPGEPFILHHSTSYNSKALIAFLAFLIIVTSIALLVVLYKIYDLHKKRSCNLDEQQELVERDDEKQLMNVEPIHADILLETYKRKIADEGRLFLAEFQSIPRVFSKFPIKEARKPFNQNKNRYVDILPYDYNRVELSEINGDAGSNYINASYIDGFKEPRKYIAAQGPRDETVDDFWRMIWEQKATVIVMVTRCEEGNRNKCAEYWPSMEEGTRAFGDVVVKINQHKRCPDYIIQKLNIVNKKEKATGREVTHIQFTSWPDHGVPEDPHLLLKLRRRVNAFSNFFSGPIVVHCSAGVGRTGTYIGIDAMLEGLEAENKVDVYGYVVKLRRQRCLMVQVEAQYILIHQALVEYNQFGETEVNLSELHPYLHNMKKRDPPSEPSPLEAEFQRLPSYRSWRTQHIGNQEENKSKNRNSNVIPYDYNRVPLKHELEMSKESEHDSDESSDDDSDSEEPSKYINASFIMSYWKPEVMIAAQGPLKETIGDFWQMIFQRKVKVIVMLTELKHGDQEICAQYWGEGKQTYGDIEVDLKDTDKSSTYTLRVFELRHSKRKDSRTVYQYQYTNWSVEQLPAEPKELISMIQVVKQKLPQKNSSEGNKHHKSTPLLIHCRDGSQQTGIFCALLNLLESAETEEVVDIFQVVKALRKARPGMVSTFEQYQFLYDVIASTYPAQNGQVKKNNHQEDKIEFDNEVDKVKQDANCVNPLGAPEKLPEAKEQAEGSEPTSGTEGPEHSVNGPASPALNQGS
Experiment: not described; same paragraph: immunoprecipitation studies reveal a physical interaction

B1: HCMV (Merlin strain; HHV5) protein UL11 (other)
chain: CIPVVGKIGTNVTLNAVDVLPPRDQVRWSYGPGGQGYMLCIFTGTSTTTFNNTRFNFSCLSNYSLLLINVTTQYSTTYRTMTSLDHWLHQRHNHGSRWTLDTCYNLTVNENGTFPTTTTKKPTTTTRTTTTTTQRTTTTRTTTTAKKTTISTTHHKHPSPKKSTTPNSHVEHHVGFEATAAETPLQPSPQHQHLATHALWVLAVVIVIIIIIIFYFRIPQKLWLLWQHDKHGIVLIPQTDL
notes: also called ULll
B1: binds.

B2: a-CD45-sc (membrane-bound anti-CD45 single chain antibody with CD8a/CD28 stalk and CD34 transmembrane region) (scFv)
scFv: QVQLVESGGGLVQPGGSLKLSCAASGFDFSRYWMSWVRQAPGKGLEWIGEINPTSSTINFTPSLKDKVFISRDNAKNTLYLQMSKVRSEDTALYYCARGNYYRYGDAMDYWGQGTSVTVSKISGGGGSGGGGSGGGGSGGGGSGGGGSSDIVLTQSPASLAVSLGQRATISCRASKSVSTSGYSYLHWYQQKPGQPPKLLIYLASNLESGVPARFSGSGSGTDFTLNIHPVEEEDAATYYCQHSRELPFTFGSGTKLEIKSSGSGSPTTTPAPRPPTPAPTIASQPLSLRPEACRPAAGGAVHTRGLDFAPRKIEVMYPPPYLDNEKSNGTIIHVKGKHLCPSPLFPGPSKPTLIALVTSGALLAVLGITGYFL
notes: The molecule was expressed on the surface of K562 target cells; also called anti-CD45-sc; ai-CD45-sc
B2: binds.
